The data set deals with recombinant overlapping peptides (ROP) fusion protein composed of 20 overlapping peptides covering HIV Nef (Lai) interspersed with Factor Xa sites (IEGR).

This is an account of results in patent publication US9382546.

“protease Factor Xa (New England Biolabs)”: the “protease digestion, SDS page and mass spectrometry” value is reported as “the ROP protein was cut by Factor Xa into overlapping peptides (ROP peptides) as shown in the mass spectrometry”.
